{"source": "paper PMC10786919", "about": "“Design-rules for stapled peptides with in vivo activity and their application to Mdm2/X antagonists” (Nature Communications, 2024)", "binders": {"B1": {"name": "AZIDE-ATSP-7041 (A13hR) (peptide)", "chain": "KXLTFXEYWAQXXSXA", "modifications": "homo-Arg (hR) at 13; N-terminal acetyl; Lys(N3) and beta-Ala before residue 1; R8 at 4 and S5 at 11 (olefin staple); Cba at 10; C-terminal amide"}, "B2": {"name": "AZIDE-ATSP-7041 (E5hR) (peptide)", "chain": "KXLTFXXYWAQXXSAA", "modifications": "homo-Arg (hR) at 5; N-terminal acetyl; Lys(N3) and beta-Ala before residue 1; R8 at 4 and S5 at 11 (olefin staple); Cba at 10; C-terminal amide"}, "B3": {"name": "AZIDE-ATSP-7041 (L1hR) (peptide)", "chain": "KXXTFXEYWAQXXSAA", "modifications": "homo-Arg (hR) at 1; N-terminal acetyl; Lys(N3) and beta-Ala before residue 1; R8 at 4 and S5 at 11 (olefin staple); Cba at 10; C-terminal amide"}, "B4": {"name": "AZIDE-ATSP-7041 (A14hR) (peptide)", "chain": "KXLTFXEYWAQXXSAX", "modifications": "homo-Arg (hR) at 14; N-terminal acetyl; Lys(N3) and beta-Ala before residue 1; R8 at 4 and S5 at 11 (olefin staple); Cba at 10; C-terminal amide"}, "B5": {"name": "AZIDE-ATSP-7041 (S12hR) (peptide)", "chain": "KXLTFXEYWAQXXXAA", "modifications": "homo-Arg (hR) at 12; N-terminal acetyl; Lys(N3) and beta-Ala before residue 1; R8 at 4 and S5 at 11 (olefin staple); Cba at 10; C-terminal amide"}, "B6": {"name": "AZIDE-ATSP-7041 (T2hR) (peptide)", "chain": "KXLXFXEYWAQXXSAA", "modifications": "homo-Arg (hR) at 2; N-terminal acetyl; Lys(N3) and beta-Ala before residue 1; R8 at 4 and S5 at 11 (olefin staple); Cba at 10; C-terminal amide"}, "B7": {"name": "AZIDE-ATSP-7041 (Q9hR) (peptide)", "chain": "KXLTFXEYWAXXXSAA", "modifications": "homo-Arg (hR) at 9; N-terminal acetyl; Lys(N3) and beta-Ala before residue 1; R8 at 4 and S5 at 11 (olefin staple); Cba at 10; C-terminal amide"}}, "note": "Positions of bridges follow the written chain, without caps; N, C: chain ends. Non-standard residues stand in square brackets, D forms with d. Primed or numbered codes have the meaning given here. Trp(6-Cl) = N[C@@H](Cc1c[nH]c2cc(Cl)ccc12)C(=O)O; Lys(N3) = [N-]=[N+]=NCCCC[C@H](N)C(=O)O; R8 = C=CCCCCCC[C@@](C)(N)C(=O)O; S5 = C=CCCC[C@](C)(N)C(=O)O; Cba′ = not defined here; Aib = CC(C)(N)C(=O)O; βAla = NCCC(=O)O", "data": [{"target": "T1, human Mdm2 1-125 (human)", "T1 construct": "Mdm2, human, residues 1-125; the stretch after the TEV site ENLYFQG of the fusion protein; source: E. coli BL21 (DE3) Rosetta T1R, purified (Ni-NTA, gel filtration)", "T1 sequence (chain, as listed by the source)": "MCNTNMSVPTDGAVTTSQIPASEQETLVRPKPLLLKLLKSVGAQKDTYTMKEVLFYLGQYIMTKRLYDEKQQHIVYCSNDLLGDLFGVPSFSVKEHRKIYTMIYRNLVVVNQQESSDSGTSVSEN", "test": "fluorescence polarisation; competitive fluorescence anisotropy: unlabelled peptide titrated against 250 nM Mdm2 (1-125) with 50 nM FAM-labelled 12/1 peptide (FAM-…-NH2); PBS pH 7.4, 0.001% Tween-20; apparent Kd, geometric means", "settings": "both partners purified", "units": {"Kd": "nM"}, "values": [{"binder": "Ac-[Lys(N3)][βAla]LTF[R8]EYWAQ[Cba′][S5]S[Aib]A-NH2 (staple 6-13; reading uncertain)", "note": "[AZIDE-ATSP-7041 (A13 TO AIB)]", "Kd": 15.2}, {"binder": "Ac-[Lys(N3)][βAla]LTE[R8]EYWAQ[Cba′][S5]SAA-NH2 (staple 6-13; reading uncertain)", "note": "[AZIDE-ATSP-7041 (F3E)]", "Kd": 11200}, {"binder": "Ac-[Lys(N3)][βAla]LTF[R8]EEWAQ[Cba′][S5]SAA-NH2 (staple 6-13; reading uncertain)", "note": "[AZIDE-ATSP-7041 (Y6E)]", "Kd": 5.1}, {"binder": "Ac-[Lys(N3)][βAla]LTF[R8]EYEAQ[Cba′][S5]SAA-NH2 (staple 6-13; reading uncertain)", "note": "[AZIDE-ATSP-7041 (W7E)]", "Kd": "> 101000"}, {"binder": "Ac-[Lys(N3)][βAla]LTF[R8]EYWAE[Cba′][S5]SAA-NH2 (staple 6-13; reading uncertain)", "note": "[AZIDE-ATSP-7041 (Q9E)]", "Kd": 34.6}, {"binder": "Ac-[Lys(N3)][βAla]LHF[R8]EYWAQ[Cba′][S5]SAA-NH2 (staple 6-13; reading uncertain)", "note": "[AZIDE-ATSP-7041 (T2H)]", "Kd": 64.2}, {"binder": "Ac-[Lys(N3)][βAla]HTF[R8]EYWAQ[Cba′][S5]SAA-NH2 (staple 6-13; reading uncertain)", "note": "[AZIDE-ATSP-7041 (L1H)]", "Kd": 0.7}, {"binder": "Ac-[Lys(N3)][βAla]LTF[R8]EYWEQ[Cba′][S5]SAA-NH2 (staple 6-13; reading uncertain)", "note": "[AZIDE-ATSP-7041 (A8E)]", "Kd": 3.2}, {"binder": "Ac-[Lys(N3)][βAla]LEF[R8]EYWAQ[Cba′][S5]SAA-NH2 (staple 6-13; reading uncertain)", "note": "[AZIDE-ATSP-7041 (T2E)]", "Kd": 42.4}, {"binder": "Ac-[Lys(N3)][βAla]LTF[R8]EYWAH[Cba′][S5]SAA-NH2 (staple 6-13; reading uncertain)", "note": "[AZIDE-ATSP-7041 (Q9H)]", "Kd": 9.6}, {"binder": "Ac-[Lys(N3)][βAla]LTF[R8]EYWAQ[Cba′][S5]HAA-NH2 (staple 6-13; reading uncertain)", "note": "[AZIDE-ATSP-7041 (S12H)]", "Kd": 4.5}, {"binder": "Ac-[Lys(N3)][βAla]LTF[R8]HYWAQ[Cba′][S5]SAA-NH2 (staple 6-13; reading uncertain)", "note": "[AZIDE-ATSP-7041 (E5H)]", "Kd": 21.1}, {"binder": "Ac-[Lys(N3)][βAla]LTF[R8]EYWAQE[S5]SAA-NH2 (staple 6-13)", "note": "[AZIDE-ATSP-7041 (CBA10E)]", "Kd": 312}]}, {"target": "T1, human Mdm2 1-125", "test": "fluorescence polarisation; competitive fluorescence anisotropy: unlabelled peptide titrated against 250 nM Mdm2 (1-125) with 50 nM FAM-labelled 12/1 peptide (FAM-…-NH2); PBS pH 7.4, 0.001% Tween-20; apparent Kd, geometric means", "settings": "both partners purified", "remark": "another data set of the same source", "units": {"Kd": "nM"}, "values": [{"binder": "Ac-[Lys(N3)][βAla]LTF[R8]EYWAK[Cba′][S5]SAA-NH2 (staple 6-13; reading uncertain)", "note": "[AZIDE-ATSP-7041 (Q9K)]", "Kd": 8.2}, {"binder": "Ac-[Lys(N3)][βAla]KTF[R8]EYWAQ[Cba′][S5]SAA-NH2 (staple 6-13; reading uncertain)", "note": "[AZIDE-ATSP-7041 (L1K)]", "Kd": 3.8}, {"binder": "Ac-[Lys(N3)][βAla]ATF[R8]EYWAQ[Cba′][S5]SAA-NH2 (staple 6-13; reading uncertain)", "note": "[AZIDE-ATSP-7041 (L1A)]", "Kd": 10.7}, {"binder": "Ac-[Lys(N3)][βAla]LTF[R8]EYWAQ[Cba′][S5]KAA-NH2 (staple 6-13; reading uncertain)", "note": "[AZIDE-ATSP-7041 (S12K)]", "Kd": 39.7}, {"binder": "Ac-[Lys(N3)][βAla]LTF[R8]EYWKQ[Cba′][S5]SAA-NH2 (staple 6-13; reading uncertain)", "note": "[AZIDE-ATSP-7041 (A8K)]", "Kd": 11.1}, {"binder": "Ac-[Lys(N3)][βAla]LAF[R8]EYWAQ[Cba′][S5]SAA-NH2 (staple 6-13; reading uncertain)", "note": "[AZIDE-ATSP-7041 (T2A)]", "Kd": 80.5}, {"binder": "Ac-[Lys(N3)][βAla]LKF[R8]EYWAQ[Cba′][S5]SAA-NH2 (staple 6-13; reading uncertain)", "note": "[AZIDE-ATSP-7041 (T2K)]", "Kd": 5.4}, {"binder": "Ac-[Lys(N3)][βAla]LTF[R8]KYWAQ[Cba′][S5]SAA-NH2 (staple 6-13; reading uncertain)", "note": "[AZIDE-ATSP-7041 (E5K)]", "Kd": 115}, {"binder": "Ac-[Lys(N3)][βAla]LTA[R8]EYWAQ[Cba′][S5]SAA-NH2 (staple 6-13; reading uncertain)", "note": "[AZIDE-ATSP-7041 (F3A)]", "Kd": 13200}]}, {"target": "T1, human Mdm2 1-125", "test": "fluorescence polarisation; competitive fluorescence anisotropy: unlabelled peptide titrated against 250 nM Mdm2 (1-125) with 50 nM FAM-labelled 12/1 peptide (FAM-…-NH2); PBS pH 7.4, 0.001% Tween-20; apparent Kd, geometric means", "settings": "both partners purified", "remark": "another data set of the same source", "units": {"Kd": "nM"}, "values": [{"binder": "B1", "Kd": 42.5}, {"binder": "Ac-[Lys(N3)][βAla]RTF[R8]EYWAQ[Cba′][S5]SAA-NH2 (staple 6-13; reading uncertain)", "note": "[AZIDE-ATSP-7041 (L1R)]", "Kd": 62.9}, {"binder": "Ac-[Lys(N3)][βAla]LTF[R8]EYWRQ[Cba′][S5]SAA-NH2 (staple 6-13; reading uncertain)", "note": "[AZIDE-ATSP-7041 (A8R)]", "Kd": 69.4}, {"binder": "B2", "Kd": 35.5}, {"binder": "B3", "Kd": 8.6}, {"binder": "B4", "Kd": 8.6}, {"binder": "Ac-[Lys(N3)][βAla]LTF[R8]EYWAR[Cba′][S5]SAA-NH2 (staple 6-13; reading uncertain)", "note": "[AZIDE-ATSP-7041 (Q9R)]", "Kd": 45.9}, {"binder": "B5", "Kd": 5}, {"binder": "Ac-[Lys(N3)][βAla]LTF[R8]RYWAQ[Cba′][S5]SAA-NH2 (staple 6-13; reading uncertain)", "note": "[AZIDE-ATSP-7041 (E5R)]", "Kd": 33}, {"binder": "Ac-[Lys(N3)][βAla]LRF[R8]EYWAQ[Cba′][S5]SAA-NH2 (staple 6-13; reading uncertain)", "note": "[AZIDE-ATSP-7041 (T2R)]", "Kd": 30.6}, {"binder": "B6", "Kd": 2.8}, {"binder": "Ac-[Lys(N3)][βAla]LTF[R8]EYWAQ[Cba′][S5]RAA-NH2 (staple 6-13; reading uncertain)", "note": "[AZIDE-ATSP-7041 (S12R)]", "Kd": 78.7}, {"binder": "B7", "Kd": 28.5}]}, {"target": "T1, human Mdm2 1-125", "test": "fluorescence polarisation; competitive fluorescence anisotropy: unlabelled peptide titrated against 250 nM Mdm2 (1-125) with 50 nM FAM-labelled 12/1 peptide (FAM-…-NH2); PBS pH 7.4, 0.001% Tween-20; apparent Kd, geometric means", "settings": "both partners purified", "remark": "another data set of the same source", "units": {"Kd": "nM"}, "values": [{"binder": "Ac-[Lys(N3)][βAla]VTF[R8]VYWVQ[Cba′][S5]SAA-NH2 (staple 6-13; reading uncertain)", "note": "[AZIDE-ATSP-7041 (L1V, E5V, A8V)]", "Kd": 122}, {"binder": "Ac-[Lys(N3)][βAla][dL]TF[R8]AY[Trp(6-Cl)]AA[Cba′][S5]S[dA]A-NH2 (staple 6-13; reading uncertain)", "note": "[AZIDE-ATSP-7041 (L1 TO D-LEU, E5A, Q9A, W7 TO 6-CLTRP, A13 TO D-ALA)]", "Kd": 16.9}]}]}
